± gives the standard deviation of the averaged measurements.
Test system: ATP
Test: switch fluorescence ratio, 500 uM ATP over buffer (Cy3 cluster intensity, sum of 5 cycles each) (fold (ratio)); higher = stronger signal-on switching upon ATP binding; sequences stand for … in TCGTCGGCAGCGTCAGATGTGTATAAGAGACAGTTTTTTTTTTTTTTTTTTTTTTTTT…TC
Details: aptamer strand: ATP DNA aptamer (quencher-CACCTGGGGGAGTATTGCGGAGGAAGG + anchor), 100 nM annealed; ATP concentration: 500 uM
Method in brief: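 Imaging in selection buffer was followed by imaging after 15 min with 500 uM ATP at 22 °C, for Cy3-labelled switching-strand clusters annealed to 100 nM quencher-labelled ATP aptamer on a modified Illumina MiSeq flow-cell. Five of these buffer/ATP cycles ran, separated by NaOH stripping and re-annealing. The fluorescence ratio per cluster is summed target-cycle over summed buffer-cycle Cy3 intensity, averaged per switch-domain sequence; clusters outside 100-1000 RFU were removed.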
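Also: ATP exposure 15 min at 22 °C before imaging.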

Sequence | switch fluorescence ratio
CGTGGGTTCC | 0.989 ± 0.038
CGTGGTATTT | 0.982 ± 0.016
CGTGGTGCTC | 1.07 ± 0.043
CGTGGTTGCA | 0.989 ± 0.018
CGTGGTTGCG | 0.962 ± 0.055
CGTGTAGTTG | 1.02 ± 0.026
CGTGTATATC | 1.07 ± 0.028
CGTGTCATTA | 1.01 ± 0.031
CGTGTCCTCG | 1.04 ± 0.088
CGTGTGATTT | 0.988 ± 0.025
CGTGTGGTAT | 1.01 ± 0.042
CGTGTGGTCG | 0.9325 ± 0.0038
CGTGTTAATG | 0.989 ± 0.037
CGTGTTACGG | 0.994 ± 0.046
CGTGTTCGGA | 0.977 ± 0.016
CGTGTTGTTT | 1.003 ± 0.01
CGTGTTTATA | 0.99 ± 0.042
CGTGTTTGGG | 0.994 ± 0.022
CGTGTTTTAT | 0.998 ± 0.039
CGTTAAATAA | 1.004 ± 0.0054
CGTTAAATTT | 0.994 ± 0.033
CGTTAAGAAA | 0.994 ± 0.016
CGTTAAGTTT | 0.9804 ± 0.0066
CGTTAATACT | 2.98 ± 0.045
CGTTAATCGT | 1.01 ± 0.021

Sequence | switch fluorescence ratio
CGTTAATCTA | 0.987 ± 0.026
CGTTACCGGA | 1.01 ± 0.029
CGTTACGCGC | 1 ± 0.023
CGTTACGCTT | 1.05 ± 0.066
CGTTACGGGA | 1.02 ± 0.057
CGTTAGAATA | 1.017 ± 0.0078
CGTTAGCTTT | 1.02 ± 0.026
CGTTAGTTCT | 1 ± 0.029
CGTTATCTAG | 1.01 ± 0.03
CGTTATTTTT | 1.016 ± 0.0089
CGTTCAATTA | 0.996 ± 0.027
CGTTCGATAT | 1.03 ± 0.03
CGTTCGGGTT | 0.989 ± 0.044
CGTTCTAATT | 1.01 ± 0.024
CGTTCTGAAT | 0.9901 ± 0.0086
CGTTCTTGTC | 1.05 ± 0.047
CGTTGATGTC | 1.01 ± 0.13
CGTTGATTTG | 0.9908 ± 0.0057
CGTTGCGAAA | 1.02 ± 0.031
CGTTGCGCCA | 1.02 ± 0.013
CGTTGCTCGA | 0.9992 ± 0.0064
CGTTGGAAGA | 1.02 ± 0.015
CGTTGGATT | 0.986 ± 0.017
CGTTGGCAGC | 1.03 ± 0.028
CGTTGGGGGC | 0.998 ± 0.087

Sequence | switch fluorescence ratio
CGTTGGGTTG | 0.987 ± 0.024
CGTTGGTGTC | 0.9921 ± 0.0085
CGTTGGTTCA | 1 ± 0.023
CGTTGGTTTT | 1.04 ± 0.02
CGTTGTGACT | 0.998 ± 0.021
CGTTGTTTCT | 0.967 ± 0.024
CGTTTAATAT | 1 ± 0.033
CGTTTACGGA | 0.998 ± 0.026
CGTTTAGGAC | 1.1 ± 0.21
CGTTTAGGCT | 1.07 ± 0.14
CGTTTAGGGG | 0.9766 ± 0.0063
CGTTTAGGTG | 1.02 ± 0.038
CGTTTCAAGA | 0.9759 ± 0.0019
CGTTTCGTTT | 0.98 ± 0.039
CGTTTGAACT | 1.025 ± 0.0094
CGTTTGATGG | 0.9807 ± 0.0047
CGTTTGGGCC | 1.01 ± 0.069
CGTTTTATCT | 1.03 ± 0.025
CGTTTTCAGA | 0.9966 ± 0.0015
CGTTTTCTCG | 0.994 ± 0.027
CGTTTTTAAG | 0.982 ± 0.0052
CGTTTTTAGG | 1.02 ± 0.024
CGTTTTTCGG | 0.971 ± 0.0087
CGTTTTTGGG | 0.985 ± 0.036
CGTTTTTTTG | 1.014 ± 0.0018

Sequence | switch fluorescence ratio
CGTTTTTTTT | 0.989 ± 0.02
CTAAAGCGCG | 1.07 ± 0.034
CTAAAGGTTC | 1.05 ± 0.05
CTAAAGTGTG | 0.9858 ± 0.0098
CTAAAGTTGG | 0.995 ± 0.02
CTAAATAATA | 0.992 ± 0.027
CTAACAGGGG | 1.426 ± 0.0043
CTAACGGACT | 1.16 ± 0.068
CTAAGAGGGA | 0.999 ± 0.025
CTAAGATAGC | 1.03 ± 0.041
CTAAGGGAGG | 0.992 ± 0.017
CTAAGGGGGA | 1 ± 0.018
CTAAGGTCTT | 1.07 ± 0.11
CTAAGTTGGG | 1.1 ± 0.13
CTAATAATAT | 1.01 ± 0.025
CTAATAGTGC | 1.016 ± 0.0021
CTAATGATTG | 0.957 ± 0.027
CTAATGGGGA | 0.981 ± 0.044
CTAATGGTAT | 0.991 ± 0.022
CTAATGGTTT | 0.982 ± 0.024
CTAATGTGCC | 0.993 ± 0.052
CTAATTGCCA | 0.994 ± 0.017
CTAATTGCGA | 1 ± 0.016
CTAATTGGTT | 0.988 ± 0.015
CTAATTTAGG | 1 ± 0.018

Sequence | switch fluorescence ratio
CTACAATGTA | 1.01 ± 0.021
CTACACGCTG | 1.01 ± 0.1
CTACATGAAA | 1.006 ± 0.0034
CTACGAAGGG | 1.04 ± 0.021
CTACGTCATT | 1.41 ± 0.095
CTACTATAAT | 1.04 ± 0.043
CTAGAAGCGG | 0.983 ± 0.013
CTAGACAGGG | 1.028 ± 0.0022
CTAGACCCGG | 0.988 ± 0.027
CTAGAGGCGA | 1.03 ± 0.026
CTAGAGTGAG | 1.02 ± 0.049
CTAGATCGAT | 0.992 ± 0.022
CTAGATCGGT | 0.982 ± 0.051
CTAGATGTTG | 0.977 ± 0.0027
CTAGCGGTCG | 0.997 ± 0.0051
CTAGCTTAGC | 0.9902 ± 0.0056
CTAGGACTTG | 0.945 ± 0.026
CTAGGATTAA | 0.985 ± 0.013
CTAGGCACAT | 1.1 ± 0.016
CTAGGGAAAC | 1.002 ± 0.009
CTAGGGCACA | 1.07 ± 0.1
CTAGGGCATG | 0.98 ± 0.016
CTAGGGGACA | 1.04 ± 0.029
CTAGGGGGTC | 0.993 ± 0.046
CTAGGGGGTT | 1 ± 0.034

Sequence | switch fluorescence ratio
CTAGGGGTAT | 1.03 ± 0.14
CTAGGGTTCT | 1.03 ± 0.019
CTAGGTCTGT | 1 ± 0.011
CTAGGTGGTT | 0.991 ± 0.04
CTAGGTTTTG | 0.995 ± 0.047
CTAGTAAGCG | 0.998 ± 0.048
CTAGTCCTGA | 0.986 ± 0.043
CTAGTGACTA | 0.987 ± 0.032
CTAGTGAGTT | 0.999 ± 0.023
CTAGTGGGTT | 0.973 ± 0.02
CTAGTTATGA | 1.02 ± 0.016
CTAGTTGGTC | 0.981 ± 0.033
CTAGTTTTTT | 0.9893 ± 0.0062
CTATAATCTA | 0.976 ± 0.041
CTATATACCA | 1.06 ± 0.043
CTATATTAGT | 1 ± 0.045
CTATCTTTAG | 0.9891 ± 0.0043
CTATGAGTGA | 1.01 ± 0.018
CTATGATCTT | 0.992 ± 0.012
CTATGATTGT | 0.977 ± 0.04
CTATGCTCAC | 1.45 ± 0.041
CTATGGCTGG | 0.981 ± 0.017
CTATGGGGGA | 1.04 ± 0.02
CTATGTTGTT | 1 ± 0.018
CTATTAAGGT | 0.98 ± 0.021

Sequence | switch fluorescence ratio
CTATTACGTC | 0.984 ± 0.045
CTATTATGTG | 0.985 ± 0.043
CTATTATTCG | 1.01 ± 0.045
CTATTTGAGG | 0.9825 ± 0.004
CTCAATGACT | 1.02 ± 0.016
CTCAATGTAT | 0.989 ± 0.032
CTCAATTTTA | 0.9743 ± 0.006
CTCACCACGA | 1.09 ± 0.057
CTCACTAGCG | 1.02 ± 0.031
CTCACTGCAT | 1.46 ± 0.11
CTCAGCAGTC | 1.2 ± 0.034
CTCAGCCAGT | 1.29 ± 0.056
CTCAGGGATT | 1.07 ± 0.033
CTCAGTAGGG | 0.975 ± 0.024
CTCAGTATCG | 1.012 ± 0.002
CTCATAACAT | 1.01 ± 0.032
CTCATAGGGA | 0.983 ± 0.024
CTCATTTATT | 0.98 ± 0.064
CTCCAGACGA | 1.47 ± 0.083
CTCCGGCGGG | 1.18 ± 0.057
CTCCGGGAAA | 1.214 ± 0.0036
CTCCTGGCCA | 1.13 ± 0.014
CTCCTTAGTT | 1.05 ± 0.035
CTCCTTTTTC | 0.976 ± 0.057
CTCGACATTT | 1.02 ± 0.027

Sequence | switch fluorescence ratio
CTCGATAGTA | 0.9741 ± 0.003
CTCGCAGGGG | 1.37 ± 0.2
CTCGCATGGT | 1.37 ± 0.024
CTCGCCGATA | 1.03 ± 0.031
CTCGCGGGTG | 1.14 ± 0.11
CTCGGATTGG | 1 ± 0.015
CTCGGCCGAG | 0.982 ± 0.016
CTCGGGGGGG | 0.998 ± 0.028
CTCGGGTGGT | 0.997 ± 0.061
CTCGTAAACG | 1 ± 0.02
CTCGTATCAG | 1.01 ± 0.021
CTCGTCCTTA | 1.019 ± 0.0051
CTCGTCGTAT | 1.06 ± 0.05
CTCGTGTTCG | 0.984 ± 0.013
CTCGTGTTGG | 0.989 ± 0.018
CTCGTTCCTG | 1 ± 0.031
CTCGTTCTTT | 1 ± 0.031
CTCTAACAGC | 1.08 ± 0.022
CTCTAACGG | 0.982 ± 0.089
CTCTAAGGC | 1.094 ± 0.0084
CTCTATATTG | 1.008 ± 0.0073
CTCTATTGAT | 0.997 ± 0.017
CTCTATTTGA | 0.977 ± 0.016
CTCTCGAAGC | 1.1577 ± 0.0001
CTCTGAGAGG | 0.9719 ± 0.0043
